Patent US20220389088A1 (UNIVERSITY OF FLORIDA RESEARCH FOUNDATION, published 2022)
Changes are numbered by the printed parent chain.

T1: recombinant human cANGPTL4 (C-terminus fibrinogen-like signaling peptide of angiopoietin-like 4) (human, UniProt Q9BY76 166-406)
T1 construct: also called C-terminus of ANGPTL4
T1 sequence: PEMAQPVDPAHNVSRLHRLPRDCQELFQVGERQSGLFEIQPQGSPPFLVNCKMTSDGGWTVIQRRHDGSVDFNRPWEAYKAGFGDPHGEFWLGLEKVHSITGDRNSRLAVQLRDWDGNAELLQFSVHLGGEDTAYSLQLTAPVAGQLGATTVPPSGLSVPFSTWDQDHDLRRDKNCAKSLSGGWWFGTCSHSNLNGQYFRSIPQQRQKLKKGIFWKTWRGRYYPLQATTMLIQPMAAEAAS

B1: Ab-A, monoclonal rat-anti-human cANGPTL4 antibody (antibody, V domains shown)
VH: QVQLKESGPGLMQPSETLSLTCTVSGFSLTTNGVGWVRQPLGKGLVWMGTIWAGGSTNYNSAVQSRLSISRDTSKSQVFLKMNSLQPEDTGTYYCARQPFYYYDGIHYTRGYFDYWGQGVMVTVSS
VL: DVQMTQSPYNLAASPGESVSINCKASKSISKYLAWYQQKLGKANKLLIYDGSTLQSGIPSRFSGSGSGTDFTLTIRSLEPEDFGLYYCQQHNEYPATFGGGTKLELK
B2: Ab-B, monoclonal rat-anti-human cANGPTL4 antibody (antibody, V domains shown)
VH: EVQLVESGGGLVQPGRSLKLSCAASGFTFSNYGMAWVRQTPTKGLEWVASISTGGSDTYYRDSVKGRFTISRDNAKNTQYLQMDSLRSEDTATYYCARQGFTEDTDYWGQGVMVTVSS
VL: DIQMTQSPSFLSASVGDRVTINCKASQNINKYLNWYQQKLGEAPKRLIYNTNNLQTGIPSRFSGSGSGTDYTLTISSLQPEDFATYFCLQHNSFPGTFGGGTKLELK
B3: Ab-C, monoclonal rat-anti-human cANGPTL4 antibody (antibody, V domains shown)
VH: EVQLVDSGGGLVQPGRSLKLSCAASGFTFSNYGMAWVRQIPTKGLEWVASISSGGGNTYYRDSVKGRFTISRDNAKNTQYLQMDSLRSEDTATYYCARDPGITGFDYWGQGVMVTVSS
VL: B2 VL with N53T, G100P, K103T
B4: Ab-D, monoclonal rat-anti-human cANGPTL4 antibody (antibody, V domains shown)
VH: B3 VH with D6E, I40T, S53T, P100S, G101T, I102V, T103D, G104Y
VL: B2 VL with N28K, Y71F, F87C
notes: also called Antibody Ab-D
B5: Ab-E, monoclonal rat-anti-human cANGPTL4 antibody (antibody, V domains shown)
VH: EVQLVESGGGLVQPGRSMKLSCAASGFTFSSFAMAWVRQAPTKGLEWVASISYDGGNTYYRDSVKGRFTISRDNAKSSLYLQMDSLRSEDTSTYYCASADLIWWYFDFWGPGTMVTVSS
VL: DIQMTQSPASLSASLEEIVTITCQASQDIGNWLAWYQQKPGKSPQLLIYGSTSLADGVPSRFSGSRSGTQYSLKISRLQVEDIGIYYCQQASSAPPTFGAGTKLELK

What follows are binders tested against T1, recombinant human cANGPTL4 (C-terminus …) (assay: direct ELISA of hybridoma supernatants).
B1: binds.

Each binder was assayed against T1, recombinant human cANGPTL4 (C-terminus …) (assay: SPR (Reichert 2SPR), purified recombinant human cANGPTL4).
Protocol: The kinetic binding parameters and affinity of the purified antibodies was determined by surface plasmon resonance (SPR) using Reichert 2SPR machine (Reichert Technologies) and purified recombinant human cANGPTL4 (Table 2).
A Kd of 0.132 nM, a koff of 3.69e-05 s⁻¹ and a kon of 269000 M⁻¹ s⁻¹ were found for B2 in this work.
A Kd of 0.199 nM, a koff of 1.35e-05 s⁻¹ and a kon of 67800 M⁻¹ s⁻¹ were found for B3 in this work.
A Kd of 0.48 nM, a koff of 3.89e-05 s⁻¹ and a kon of 81100 M⁻¹ s⁻¹ were found for B4 in this work.
A Kd of 3.74 nM, a koff of 8.07e-05 s⁻¹ and a kon of 21500 M⁻¹ s⁻¹ were found for B5 in this work.
